The record followed here is the Immune Epitope Database (IEDB).

In assay [1] the target is HLA-B*08:01. Kind of assay: IEDB peptide-MHC binding, purified MHC/competitive/radioactivity; filed as Kd, often an IC50 or EC50 that approximates it; ≥ and ≤ were set here for values at or beyond the usual limits of such assays.
In assay [2] the target is HLA-A*02:01. The assay is described as above.
Another assay concerns the target HLA-A*02:06. The assay is described as above.
In a further assay the target is HLA-A*02:03. The description is as above.
The next assay addresses HLA-A*68:02. The assay is described as above.
Another assay concerns the target HLA-A*02:02. Described as above.
Another assay has as its target HLA-A*32:01. Described as above.
Assay [3] has as its target HLA-B*18:01. Nature of the assay: IEDB peptide-MHC binding, purified MHC/direct/fluorescence; filed as Kd, often an IC50 or EC50 that approximates it; ≥ and ≤ were set here for values at or beyond the usual limits of such assays.
For assay [4], the target named is HLA-B*15:01. Nature of the assay: IEDB peptide-MHC binding, purified MHC/competitive/radioactivity; filed as Kd, often an IC50 or EC50 that approximates it; ≥ and ≤ were set here for values at or beyond the usual limits of such assays. The following applies: source organism: Vaccinia virus WR.
Assay [5] has as its target HLA-B*51:01. The description is as above. Conditions: source organism: Dengue virus 4 Philippines/H241/1956.
Assay [6] concerns the target HLA-A*26:01. The assay is described as above.
The target of the next assay is HLA-A*03:01. Nature of the assay: IEDB peptide-MHC binding, purified MHC/direct/fluorescence; filed as Kd, often an IC50 or EC50 that approximates it; ≥ and ≤ were set here for values at or beyond the usual limits of such assays.
Another assay concerns the target HLA-B*07:02. The description is as above. The following applies: source organism: Pseudomonas putida.
Assay [7] addresses HLA-B*15:01. The assay is described as above. The following applies: source organism: Pseudomonas putida.
The target of assay [8] is HLA-A*02:01. Described as above.
Assay [9] concerns the target HLA-A*26:01. Described as above. Conditions: source organism: Pseudomonas putida.
The target in assay [10] is HLA-A*01:01. The description is as above. The following applies: source organism: Pseudomonas putida.
In assay [11] the target is HLA-B*08:01. Described as above. Conditions: source organism: Pseudomonas putida.
The next assay has as its target HLA-A*11:01. Described as above. Conditions: source organism: Pseudomonas putida.
The next assay deals with HLA-B*58:01. Described as above. Conditions: source organism: Pseudomonas putida.
Another assay deals with HLA-B*40:01. Described as above. The following applies: source organism: Pseudomonas putida.
A further assay deals with HLA-A*31:01. The assay is described as above. Conditions: source organism: Pseudomonas putida.
The target in a further assay is HLA-B*27:05. The description is as above. The following applies: source organism: Pseudomonas putida.
For another assay, the target named is HLA-A*69:01. The assay is described as above. Conditions: source organism: Pseudomonas putida.
Assay [12] concerns the target HLA-A*01:01. Nature of the assay: IEDB peptide-MHC binding, purified MHC/competitive/radioactivity; filed as Kd, often an IC50 or EC50 that approximates it; ≥ and ≤ were set here for values at or beyond the usual limits of such assays. Conditions: source organism: Dengue virus 2 Jamaica/1409/1983.
For assay [13], the target named is HLA-B*51:01. Kind of assay: IEDB peptide-MHC binding, purified MHC/competitive/fluorescence; filed as Kd, often an IC50 or EC50 that approximates it; ≥ and ≤ were set here for values at or beyond the usual limits of such assays.
For the next assay, the target named is HLA-B*57:01. The description is as above. Conditions: source organism: Hantavirus HPR/02-73.
Assay [14] deals with HLA-A*26:01. The assay is described as above. The following applies: source organism: Hantavirus HPR/02-73.
Assay [15] has as its target HLA-B*18:01. The assay is described as above. Conditions: source organism: Hantavirus HPR/02-73.
In the next assay the target is HLA-B*27:03. Described as above. Conditions: source organism: Hantavirus HPR/02-73.
Where [16] appears, read: source organism: Vaccinia virus WR.
Setting [17] is: source organism: Human immunodeficiency virus type 1 (SF33 ISOLATE).
The mark [18] stands for this setting: source organism: Dengue virus 4 Philippines/H241/1956.
Setting [19] is: source organism: Lassa virus Josiah.
The mark [20] stands for this setting: source organism: Dengue virus 1 Singapore/S275/1990.
[21] abbreviates: source organism: Dengue virus 2 Jamaica/1409/1983.
Setting [22] is: source organism: Trypanosoma cruzi.
[23] abbreviates: source organism: Dengue virus 3 Martinique/1243/1999.
The mark [24] stands for this setting: source organism: Pseudomonas putida.

For orientation: Kd means a measure of binding affinity in units of concentration. ELKLFNVTL: in the assay with HLA-B*08:01 [1] (setting [16]), the Kd was 4.68 nM.

In the case of LLQYWSQEL, the Kd in the assay with HLA-A*02:01 [2] (source organism: HIV-1 M:B_MN) came out at 189 nM.

Take ALIRILQQL: the Kd in the assay with HLA-A*02:06 (setting [17]) is 8.2 nM; with HLA-A*02:01 [2] (setting [17]), 28.1 nM; in the assay with HLA-A*02:03 (setting [17]), 2.99 nM; with HLA-A*68:02 (setting [17]), ≥ 65300 nM; with HLA-A*02:02 (setting [17]), 3.31 nM.

For the sequence MVTHFDNTQV, in the assay with HLA-A*68:02 (setting [18]), the Kd stood at 9.99 nM.

Turning to LVGLVTFLL, the Kd in the assay with HLA-A*02:01 [2] (setting [19]) was found to be 641 nM.

Regarding SVMNFIPII, the Kd is 0.604 nM with HLA-A*32:01 (setting [16]), 2.83 nM with HLA-A*02:06 (setting [16]), 6.26 nM with HLA-A*02:03 (setting [16]) and 13.2 nM with HLA-A*02:02 (setting [16]).

In the case of TWLPVLLGSL, the dissociation constant Kd in the assay with HLA-B*08:01 [1] (setting [20]) worked out at 9430 nM.

On to FPFGDVWNY, for which, in the assay with HLA-B*18:01 [3] (source organism: Listeria innocua), the Kd is 1.4 nM.

Turning to TVTGGIFLFL, in the assay with HLA-A*68:02 (setting [21]), the Kd was found to be 53.6 nM.

Take LLGMWGIAAI: the Kd with HLA-A*02:06 (setting [22]) is 9.58 nM; with HLA-A*02:01 [2] (setting [22]), 14.3 nM; in the assay with HLA-A*02:03 (setting [22]), 3.16 nM; in the assay with HLA-A*68:02 (setting [22]), ≥ 42200 nM; with HLA-A*02:02 (setting [22]), 24.3 nM.

Take LIITKVFSF: the Kd with HLA-A*32:01 (setting [16]) was 83.9 nM; in the assay with HLA-B*15:01 [4], 7.68 nM.

In the case of SSMRKTDWL, in the assay with HLA-B*08:01 [1] (setting [23]), the Kd turned out to be 240 nM.

LSIPPTAGIL: the dissociation constant (Kd) amounted to 9470 nM with HLA-B*51:01 [5] and 2340 nM with HLA-B*08:01 [1] (setting [18]).

For the sequence TSKKRSWPL, in the assay with HLA-B*08:01 [1] (setting [21]), the Kd was found to be 5.82 nM.

Take EVDSFSLGLL: the Kd was found to be 1930 nM with HLA-A*26:01 [6] (setting [20]) and 146 nM in the assay with HLA-A*68:02 (setting [20]).

As to RLTQSHPIL, the Kd with HLA-A*02:01 [2] (setting [19]) was 1670 nM.

For the sequence SPYNFFKRI, in the assay with HLA-B*08:01 [1] (setting [16]), the dissociation constant Kd came to 422 nM.

Consider GASRRSWPL, for which the dissociation constant (Kd) with HLA-B*08:01 [1] (source organism: Dengue virus 4 Dominica/814669/1981) is 14 nM.

For the sequence DTMTYKCPRI, the Kd in the assay with HLA-A*68:02 (source organism: Dengue virus 1 Brazil/97-11/1997) is 64 nM.

As to WLVLRINKAL, the Kd with HLA-A*68:02 (source organism: Homo sapiens) came to 4450 nM.

Turning to FANYNFTLV, the equilibrium dissociation constant (Kd) with HLA-A*02:06 (setting [22]) is 0.00585 nM; in the assay with HLA-A*02:03 (setting [22]), ≥ 78100 nM; with HLA-A*68:02 (setting [22]), 0.0102 nM; with HLA-A*02:02 (setting [22]), 22.6 nM.

In the case of LGRNKRPRL, the dissociation constant (Kd) with HLA-B*08:01 [1] (source organism: Dengue virus 3 Sri Lanka/1266/2000) is 42.7 nM.

Regarding IDKKGKVVGL, the Kd in the assay with HLA-B*08:01 [1] (source organism: Dengue virus 2 16681-PDK53) amounted to 13700 nM.

Turning to YLLPSRGPKL, the dissociation constant Kd with HLA-A*02:01 [2] (source organism: Hepatitis C virus subtype 2b) amounted to 646 nM.

The sequence KEVSGVKGF showed a Kd in the assay with HLA-B*18:01 [3] (source organism: Yellow fever virus) of 500 nM.

For MLLVLCAVQL, in the assay with HLA-B*08:01 [1] (setting [23]), the Kd is 5970 nM.

As to MMKERSTIL, the dissociation constant (Kd) with HLA-B*08:01 [1] (setting [16]) turned out to be 34.9 nM.

As for QLQVTEREEV, in the assay with HLA-A*68:02 (source organism: Homo sapiens), the Kd is ≥ 60000 nM.

In the case of ILNAMITKI, the Kd with HLA-A*02:01 [2] (source organism: Homo sapiens) was 95 nM.

In the case of IMTSYQYLII, the Kd with HLA-A*02:01 [2] (setting [19]) was 1000 nM.

As for DLSNSMRDF, the dissociation constant (Kd) with HLA-A*03:01 (setting [24]) is ≥ 20000 nM; with HLA-B*07:02, ≥ 20000 nM; with HLA-B*15:01 [7], ≥ 20000 nM; with HLA-A*02:01 [8] (setting [24]), ≥ 20000 nM; with HLA-A*26:01 [9], 4520 nM; with HLA-A*01:01 [10] it was ≥ 20000 nM. Further, the dissociation constant Kd with HLA-B*08:01 [11], with HLA-A*11:01, in the assay with HLA-B*58:01, with HLA-B*40:01, with HLA-A*31:01 and in the assay with HLA-B*27:05 was ≥ 20000 nM throughout. Further, the Kd with HLA-A*69:01 is ≥ 20000 nM.

On to SASSMINGV, for which, in the assay with HLA-A*68:02 (setting [23]), the Kd stood at 28.9 nM.

KTKLNDWDFV: in the assay with HLA-A*32:01 (setting [23]), the dissociation constant Kd was found to be 18500 nM.

Take RTVFFVLMML: in the assay with HLA-A*68:02 (setting [18]), the Kd was determined as 17.9 nM.

Turning to TLWAIINTI, the Kd in the assay with HLA-A*32:01 (setting [16]) was determined as 1.52 nM.

Consider GLYNFATCGL, for which the equilibrium dissociation constant (Kd) was 218 nM in the assay with HLA-A*02:06 (setting [19]), 2.27 nM in the assay with HLA-A*02:03 (setting [19]), ≥ 5000 nM in the assay with HLA-A*68:02 (setting [19]) and 5.12 nM in the assay with HLA-A*02:02 (setting [19]).

As to MSFSCIAIGI, the equilibrium dissociation constant (Kd) with HLA-A*68:02 (setting [23]) is 5.17 nM.

Regarding NPQTKQMAF, the equilibrium dissociation constant (Kd) in the assay with HLA-B*08:01 [1] (setting [16]) stood at 14.3 nM.

Take YLSTERDHV: the dissociation constant (Kd) with HLA-A*02:01 [2] (source organism: Variola virus) was 100 nM.

MTTEDMLAV: the Kd is 7.01 nM with HLA-A*02:06 (setting [21]), 623 nM with HLA-A*26:01 [6] (setting [21]), 10.8 nM with HLA-A*68:02 (setting [21]) and 2700 nM with HLA-A*01:01 [12].

For the sequence KIDNYVVKF, the dissociation constant Kd in the assay with HLA-A*32:01 (setting [16]) worked out at 19.4 nM.

On to EARKTFVDL, for which the Kd with HLA-B*08:01 [1] (setting [21]) is 570 nM.

Take GKKHMIAGVL: in the assay with HLA-B*08:01 [1] (source organism: Dengue virus 3 Singapore/8120/1995), the dissociation constant Kd was 11900 nM.

Regarding FIWFIFHFV, the Kd in the assay with HLA-B*08:01 [1] (source organism: Vaccinia virus) was determined as 3160 nM.

Consider LPDTGSWGI, for which the Kd in the assay with HLA-B*51:01 [13] (source organism: Yersinia pestis Nepal516) was ≥ 20000 nM.

For the sequence YILGFAIPI, the Kd in the assay with HLA-B*51:01 [13] (source organism: Hantavirus HPR/02-73), with HLA-B*57:01, in the assay with HLA-A*26:01 [14], in the assay with HLA-B*18:01 [15], with HLA-B*27:03 and in the assay with HLA-A*03:01 (source organism: Araucaria virus) was ≥ 20000 nM each time. The Kd with HLA-A*02:01 [8] (source organism: Juquitiba virus) was 0.3 nM.

Consider ETPTWNRKEL, for which the Kd with HLA-A*68:02 (setting [23]) was 872 nM.

As for ITNELNYVL, the Kd with HLA-A*32:01 (setting [18]) came out at 74.6 nM.

Take MRGAKRMAIL: the dissociation constant Kd with HLA-B*08:01 [1] (setting [21]) worked out at 54.2 nM.

Turning to WTLYAVATTI, the Kd with HLA-A*68:02 (setting [18]) is 10 nM.

For LTFIRSTMPL, the figures for the Kd with HLA-B*51:01 [5], with HLA-A*26:01 [6] (setting [18]) and with HLA-A*68:02 (setting [18]) were 1520 nM, 7410 nM and 19.8 nM, respectively.

Take FVKRKKLDI: the Kd with HLA-B*08:01 [1] (setting [16]) came out at 2.98 nM.

On to SAKQLRTRI, for which, in the assay with HLA-B*08:01 [1] (setting [16]), the Kd amounted to 201 nM.
